T1: nicotinic acetylcholine receptor (nAChR) δ subunit, muscle-type, Torpedo (Tetronarce californica, UniProt P02718 22-522)
T1 sequence: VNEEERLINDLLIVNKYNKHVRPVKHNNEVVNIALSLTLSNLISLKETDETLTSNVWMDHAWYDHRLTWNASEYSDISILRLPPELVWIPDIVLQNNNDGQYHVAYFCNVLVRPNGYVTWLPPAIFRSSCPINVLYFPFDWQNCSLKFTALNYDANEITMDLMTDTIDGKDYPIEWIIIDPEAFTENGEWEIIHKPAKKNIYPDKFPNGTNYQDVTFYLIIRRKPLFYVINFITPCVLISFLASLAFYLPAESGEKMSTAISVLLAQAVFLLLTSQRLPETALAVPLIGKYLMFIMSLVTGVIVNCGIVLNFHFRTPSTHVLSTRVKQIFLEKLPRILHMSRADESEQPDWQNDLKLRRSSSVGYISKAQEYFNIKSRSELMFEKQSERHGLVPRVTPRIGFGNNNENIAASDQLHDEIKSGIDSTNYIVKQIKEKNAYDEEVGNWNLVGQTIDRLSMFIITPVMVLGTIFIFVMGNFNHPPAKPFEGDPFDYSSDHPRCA

B1: nicotinic acetylcholine receptor (nAChR) β subunit, muscle-type, Torpedo (natural protein)
chain: SVMEDTLLSVLFETYNPKVRPAQTVGDKVTVRVGLTLTNLLILNEKIEEMTTNVFLNLAWTDYRLQWDPAAYEGIKDLRIPSSDVWQPDIVLMNNNDGSFEITLHVNVLVQHTGAVSWQPSAIYRSSCTIKVMYFPFDWQNCTMVFKSYTYDTSEVTLQHALDAKGEREVKEIVINKDAFTENGQWSIEHKPSRKNWRSDDPSYEDVTFYLIIQRKPLFYIVYTIIPCILISILAILVFYLPPDAGEKMSLSISALLAVTVFLLLLADKVPETSLSVPIIIRYLMFIMILVAFSVILSVVVLNLHHRSPNTHTMPNWIRQIFIETLPPFLWIQRPVTTPSPDSKPTIISRANDEYFIRKPAGDFVCPVDNARVAVQPERLFSEMKWHLNGLTQPVTLPQDLKEAVEAIKYIAEQLESASEFDDLKKDWQYVAMVADRLFLYVFFVICSIGTFSIFLDASHNVPPDNPFA
B2: nicotinic acetylcholine receptor (nAChR) α subunit, muscle-type, Torpedo (natural protein)
chain: SEHETRLVANLLENYNKVIRPVEHHTHFVDITVGLQLIQLISVDEVNQIVETNVRLRQQWIDVRLRWNPADYGGIKKIRLPSDDVWLPDLVLYNNADGDFAIVHMTKLLLDYTGKIMWTPPAIFKSYCEIIVTHFPFDQQNCTMKLGIWTYDGTKVSISPESDRPDLSTFMESGEWVMKDYRGWKHWVYYTCCPDTPYLDITYHFIMQRIPLYFVVNVIIPCLLFSFLTGLVFYLPTDSGEKMTLSISVLLSLTVFLLVIVELIPSTSSAVPLIGKYMLFTMIFVISSIIITVVVINTHHRSPSTHTMPQWVRKIFIDTIPNVMFFSTMKRASKEKQENKIFADDIDISDISGKQVTGEVIFQTPLIKNPDVKSAIEGVKYIAEHMKSDEESSNAAEEWKYVAMVIDHILLCVFMLICIIGTVSVFAGRLIELSQEG

Experiments:
[1] = target: T1, nicotinic acetylcholine receptor …; experiment: cryo-EM structure
[2] = target: B1; experiment: cryo-EM structure

| Binder | binding result [1] | binding result [2] |
| --- | --- | --- |
| B1 | binds |  |
| B2 |  | binds |

Reference: paper doi:10.1101/2024.12.02.626350 (bioRxiv, 2024)
